In the nanobody polyreactivity screen of Harvey et al. (2022):

Assay: yeast display, Sf9 membrane polyspecificity reagent, FACS + sequencing; frameworks hold sequencing errors
In short: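 Using colony PCR, genes from sorted yeast display clones were amplified, then sequenced on MiSeq at 2 × 250 and filtered by CDR length. The clones had been stained with 10% biotinylated, detergent-solubilized Sf9 membrane reagent for 1 hour at 4 °C and sorted by FACS into low and high (top ~1%) gates on anti-HA and streptavidin fluorescence. Polyreactivity labels come from the gate of origin.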

QVQLVESGGGLVQAGGSLRLSCAGSGRIFYVYAMGWYRQAPGKERELVAAISRGGSTNYADSVKGRFTISRDNAKNTVYLQMNSLKPEDTAVYYCAASSLPHYSFRHSYLYEYWGQGTQVTVSS
polyreactivity (PSR sort gate): low polyreactivity

QVQLVESGGGLVQAGGSLRLSCAASGITFDANAMGWYRQAPGKERELVARISSGGSTNYADSVKGRFTISRDNAKNTVYLQMNSLKPEDTAVYYCNTDLTGLDAEYDYWGQGTQVTVSS
polyreactivity (PSR sort gate): low polyreactivity

QVQLVESGGGLVQAGGSLRLSCAASGFIFNINTMGWYRQAPGKERELVAAITLNGDGTYYADSVKGRFTISRDNAKNTVDIQMNSLNPADTAVDYCNAATWYYYYVSRETYYFDVDYWGQGTQVTVSS
polyreactivity (PSR sort gate): low polyreactivity

QVQLVESGGGLVQAGGILRLSSAASGLILPDYAMGWYRQAPGKERELVAAISEYAGSTYYADSVKGRFTISRDNAKNTVYLQMNSLKPEDTAVYYCAAEVWFYSWYFWYYDGEDYWGQGTQVTVSS
polyreactivity (PSR sort gate): high polyreactivity

QVQLVESGGGLVQAGGSLRLSCAASGSNFSYNAMGWYRQAPGKERELVATITTGGRTSYADSVKGRFTISRDNAKNTVYLQMNSLKPEDTAVYYCAAVGRFSSRPRVVYYGYDYWGQGTQVTVSS
polyreactivity (PSR sort gate): low polyreactivity

QVQLEESGGGLVQAGGSLRIICAASGRTFQLYAMGWYRQAPGKERELVAAITWSSGRTSYADSVKGRFTISRDNAKNTVYLQMNSLKPEDTAVYYCAADVWGGLLPGYDYWGQGTQVTVSS
polyreactivity (PSR sort gate): high polyreactivity

QVQLVESGGGLVQAGGSLRLSCAASGSIFPGYPMGWYRQAPGKERELVAAISRSGGITYYADSVKGRFTISRDNAKNTVYLQMNSLKPEDTAVYYCAKTLPSNGHYDYWGQGTQVTVSS
polyreactivity (PSR sort gate): low polyreactivity

QVQLVESGGGLVQAGGSLRLSCAASGRTFIYYDKGWYRQAPGKERDLVAAIRQRGDNTYYADSVKGSFTISRDNAKNTVYLKMKSLKPDDTAVYFCAAVNYLSYRYGYSWSYPGGGYWGQGTQVTVSS
polyreactivity (PSR sort gate): high polyreactivity

QVQLVESGGGLVQAGGSLRLSCAASGGIFRGYTMGWYRQAPGKERELVAAISKGGGSTYYADSVKGRFTISRDIAKNTVYLQMNSLKPEDTAVYYCAARHVYPLLDYWGQGTQVTVSS
polyreactivity (PSR sort gate): high polyreactivity

QVQLVESAGGLVQSGGSLRLSCPASGRIFYLNAQGWYRQAPGKERELVAAITWSGGRTYYADSVKGRFTISRDYAKNSVYLQMNSLKPEDTAVYYCAAVPRPGPNTVLTPYGYWGQGTQVTVSS
polyreactivity (PSR sort gate): high polyreactivity

QVQLVESGGGLVQAGGSLRLSCAASGGTFGRYAMGWYRQAPGKERELVAAITYGGGSTYYADSVKGRFTISRDNAKNTVYLQMNSLKPEDTAVYYCNKYASLRYWGQGTQVTVSS
polyreactivity (PSR sort gate): high polyreactivity

QVHLVESGGGLVQAVVSLRLSCAASGTTFVSYAMGWYRHATGKERELVAGISWSGTRTYYADSVKGRFTISRDNAMNTVYLQMNSLKPEDSAVYYCNAVYIYNYRTLDYWGQGTQVTVSS
polyreactivity (PSR sort gate): high polyreactivity

QVQLVESGGGLVQAGGSLRLSCAASGIIFSPNAMGWYRQAPGKEMELVAGISSGGSTYYADSVKGRFTISRDNAKNTVYFQMNSLKPEDTAVYYCNRGWAHSNAKFDYWGQGTQVTVSS
polyreactivity (PSR sort gate): high polyreactivity

QVQLVESGGGLVQAGGSLRLSCAASGSTFRRNAMGWYRQAPGKERELVAAISTSGGTTYYADSVKGRFTISRDNAKNTVYLQMNSLKPEDTAVYYCNKGGISGRDYWGLGTQVTVSS
polyreactivity (PSR sort gate): high polyreactivity

QVQLVESGGGLVQAGGSHRLSCAASGFTLRYYSMGRNRPATGKERELVAPISFRGVRTYYADSVKGRFTISRDNAKNTVYLQMNSLKPEDTAVYYCAAASRRGVLYPSLPVLPDDYWGQGTQVTVSS
polyreactivity (PSR sort gate): high polyreactivity

QVQLVESGGGLVQAGGSLRLSCAASGRILWSYAMGWYRQAPGKERELVASISGRGGSTYYADSVKGRFTISRDNAKNTVYLQMNSLKPEDTAVYYCAAYRLRFWSMDYWGQGTQVTVSS
polyreactivity (PSR sort gate): high polyreactivity

QVQLQESGGGLVQAGGSLRLSCAASGSIFEELDMGWYRQAPGKEREFVAAIGTGSTTYYADSVKGRFTISRDNAKNTVYLQMNSLKPEDTAVYYCAVDTWARAYLGYWGQGTQVTVSS
polyreactivity (PSR sort gate): high polyreactivity

QLQLVESGGGLVQAGGSLRISCAASRSTFENNAMGWYRQAPGKERELVASSTNYADSVKGRFTISRDNAKNTVYLQMNSLKPEDTAVYYCAREQGVNRNHDYWGQATQVTVSS
polyreactivity (PSR sort gate): low polyreactivity

QVQLVESGGGLVQAGGSLRLSCAASGIIFQQYAMGWYRQAPGKERELVAAITYSGDGTYYADSVKGRFTISRDNAKNTVYLQMNSLKPEDTAVYYCAADVGYFKSDYWGQGTQVTVSS
polyreactivity (PSR sort gate): low polyreactivity

QVQLVESGGGLVQAGGSLRLICAASGRTFTRYAMGWYRQAAGKERELVAAITSTGSTYYADSVKGRFTISRDNAKNTVYLQMNSLKPEDTAVYYCNKVGIRYYYGYDYWGQGTQVTVSS
polyreactivity (PSR sort gate): high polyreactivity

QVQLVESGVGLVQAGGSLRLSCASSGSTCGYYTMGWYRQAPGKERELVAAITKTGGGTYYADSVKGRFTISRDNAKNTDYLQMNSLKPEDTAVYYCAAYSRFTSDYWGQGTQVTVSS
polyreactivity (PSR sort gate): high polyreactivity

QVQLVESGGGLVQAGGRLRLSCAASGSTLDPYAMGLYRQAPGKERELVAAITISGGTTYNADSVKGRFTISRDNAKNTVYLQMNSMKPEDTAVYYCAAEGTYVTLGYYNLDVRYDYWGQGTQVTVSS
polyreactivity (PSR sort gate): low polyreactivity

QVQLVESGGGLVQAGGSLRLSCAASGFTFWRYGMGWYRQAPGKERELVASITSGGGTNYADSVKGRFTISRDNAKNTVYFQMNSLKPEDTAVYYCAATYPYSWVYSGYYYWGQGTQVTVSS
polyreactivity (PSR sort gate): low polyreactivity

QVQLVESGGGLVQAGGSLRLSCAASGFIFVSYALGWYRQAPGKETELVAAISSSGGTTNYADSVKGRFTISRDNAKNTVYLQMNSLKPEDTAVYYCAAYVYQTPHSLHIYDYWGQGTQVTVSS
polyreactivity (PSR sort gate): low polyreactivity

QVQLVESGGGLVQAGGSLRLSCAASGRTFRRNTMGWYRQATGKERAFVAAITFSGVRTYYADSVKGRFTISRDNAKNTVYLQMNSLKPEDTAVYYCANSRQYIGGFDYWGQGTQVTVSS
polyreactivity (PSR sort gate): high polyreactivity

QVQLVESGGGLVQAGGSLRLSCAAYGSIFLYYTMGRYRQAPGKERELVAAISRSGGSTYYADSEKGRFTISRDNALNTVYLQMNSLKPEDTAVYFCGSRSGYIYEYWGQGTQVTVSS
polyreactivity (PSR sort gate): high polyreactivity

QVQLVESGGGLVQAGGSLRLSCAASGTIFDVNALGWYRQAPGKERELVAAITSGGGTNYADSVKGRFTISRDNAKNTVYLQMNSLKPEDTAVYYCAADHVYYDYDYWGQGTQVTVSS
polyreactivity (PSR sort gate): low polyreactivity

QVQLVESGGGLVQAGGSLRLSCAASGSTFVYNAMGWYRQAPGKERELVAAISARTGRTYYADSVKGRFTISRDNAKNTVYLQMNSLKPEDTAVYYCARRYYTGYKNLPYGYWGQGTQVTVSS
polyreactivity (PSR sort gate): high polyreactivity

QVQLVESGGGLVQAGGSLRLSCAASGRTFRYNTMGCYRQAPGKERELVAAITKGAASTYYADSVKGRFTISRDNAKNTVYLQMNSLKPEDTAVYYCNAVYSRIVTQKYWGQGTQVTVSS
polyreactivity (PSR sort gate): high polyreactivity

QEQLVESGGGLVQAGGSLRLSCAASGRIFPYYAMGWYRPAPGKERELVASITARGGSTYYADSVKGRFTISRDNAKNTVYLQMNSLKPEDTAVYYCATRGYAWSSDKFGYWGQGTQVTVSS
polyreactivity (PSR sort gate): high polyreactivity

QVQLVESGGGLVQAGGSLRLSSAASGSIFRSYTMGWYRQAPGKERELVAAISGRAGSTYYADAVKGRVTISRDNAKNTVYLQMNSLKPEDTAVYYCAVKLGGRSQSYYWGQGTQVTVSS
polyreactivity (PSR sort gate): high polyreactivity

QVQLVESGGGLVQAGGSLRLSCAASGSIIGRYAMGWYRQAPGKERELVAAISTGGGRTYYADSVKGRFTISRDSAKNTVYFQLNSLKPEDTAVYYCNAGPYKGWGRMDYWGQGTQVNVSS
polyreactivity (PSR sort gate): high polyreactivity
